Test results as given in paper PMC11101554, “Pyruvate kinase 2 from Synechocystis sp. PCC 6803 increased substrate affinity via glucose-6-phosphate and ribose-5-phosphate for phosphoenolpyruvate consumption” (Plant Molecular Biology, 2024).
Blank lines part the entries; values can stand above or below the molecule they belong to.

Columns and labels:
[1] = molecular target: T1, SyPyk2 (Synechocystis pyruvate kinase 2) (Synechocystis sp. PCC 6803, UniProt P73534); test: LDH-coupled assay, NADH oxidation at […] nm; type: biochemical
T1 construct: gene pyk2; synthesized gene in pGEX6P-1 (BamHI-XhoI), GST fusion from E. coli BL21, GST tag cut by PreScission protease; untagged 63 kDa
T1 sequence (P73534 1-591): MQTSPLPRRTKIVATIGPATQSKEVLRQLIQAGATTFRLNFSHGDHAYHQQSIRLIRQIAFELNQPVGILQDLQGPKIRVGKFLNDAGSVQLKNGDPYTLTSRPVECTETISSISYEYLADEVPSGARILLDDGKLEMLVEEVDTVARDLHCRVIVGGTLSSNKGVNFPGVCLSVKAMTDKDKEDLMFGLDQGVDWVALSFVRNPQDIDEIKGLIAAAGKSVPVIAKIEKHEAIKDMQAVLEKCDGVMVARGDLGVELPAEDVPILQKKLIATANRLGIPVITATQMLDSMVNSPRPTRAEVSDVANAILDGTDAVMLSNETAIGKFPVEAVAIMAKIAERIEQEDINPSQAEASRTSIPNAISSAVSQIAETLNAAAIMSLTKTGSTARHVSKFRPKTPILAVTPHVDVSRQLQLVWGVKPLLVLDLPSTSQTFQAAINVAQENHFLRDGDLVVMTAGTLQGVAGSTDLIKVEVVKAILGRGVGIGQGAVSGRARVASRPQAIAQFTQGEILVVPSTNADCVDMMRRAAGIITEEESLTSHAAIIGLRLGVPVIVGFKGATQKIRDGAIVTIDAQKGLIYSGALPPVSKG

[2] = molecular target: T1, SyPyk2 (Synechocystis pyruvate kinase 2); test: LDH-coupled assay, NADH oxidation at […] nm; type: biochemical; conditions: read-out: % activity at 1 mM
purified protein [3] = substrate: C=C(OP(=O)(O)O)C(=O)O; test: purified protein; type: biochemical, Synechocystis sp. PCC 6803; conditions: 55 °C, pH 7.0 MES-NaOH, 2 mM ADP, 15 mM MgCl2, 100 mM KCl, no effector, sigmoidal (half-saturation, cooperative)
purified protein [4] = substrate: Nc1ncnc2c1ncn2[C@@H]1O[C@H](COP(=O)(O)OP(=O)(O)O)[C@@H](O)[C@H]1O; test: purified protein; type: biochemical, Synechocystis sp. PCC 6803; conditions: 55 °C, pH 7.0 MES-NaOH, 5 mM PEP, 15 mM MgCl2, 100 mM KCl, hyperbolic

IC50 [1]: 4.1 mM
Molecule: Nc1ncnc2c1ncn2[C@@H]1O[C@H](COP(=O)(O)OP(=O)(O)OP(=O)(O)O)[C@@H](O)[C@H]1O [ATP, adenosine triphosphate]

activity at 1000 µM [2]: ~150%
Molecule: O=P(O)(O)OC[C@H]1OC(O)[C@H](O)[C@@H]1O (stereo partly drawn) [R5P, ribose-5-phosphate]

activity at 1000 µM [2]: ~200%
Molecule: O=P(O)(O)OC[C@H]1OC(O)[C@H](O)[C@@H](O)[C@@H]1O (stereo partly drawn) [G6P, glucose-6-phosphate]

B1: SyPyk2 (Synechocystis pyruvate kinase 2) (Synechocystis sp. PCC 6803 substr. Kazusa) (protein)
chain: MQTSPLPRRTKIVATIGPATQSKEVLRQLIQAGATTFRLNFSHGDHAYHQQSIRLIRQIAFELNQPVGILQDLQGPKIRVGKFLNDAGSVQLKNGDPYTLTSRPVECTETISSISYEYLADEVPSGARILLDDGKLEMLVEEVDTVARDLHCRVIVGGTLSSNKGVNFPGVCLSVKAMTDKDKEDLMFGLDQGVDWVALSFVRNPQDIDEIKGLIAAAGKSVPVIAKIEKHEAIKDMQAVLEKCDGVMVARGDLGVELPAEDVPILQKKLIATANRLGIPVITATQMLDSMVNSPRPTRAEVSDVANAILDGTDAVMLSNETAIGKFPVEAVAIMAKIAERIEQEDINPSQAEASRTSIPNAISSAVSQIAETLNAAAIMSLTKTGSTARHVSKFRPKTPILAVTPHVDVSRQLQLVWGVKPLLVLDLPSTSQTFQAAINVAQENHFLRDGDLVVMTAGTLQGVAGSTDLIKVEVVKAILGRGVGIGQGAVSGRARVASRPQAIAQFTQGEILVVPSTNADCVDMMRRAAGIITEEESLTSHAAIIGLRLGVPVIVGFKGATQKIRDGAIVTIDAQKGLIYSGALPPVSKG
notes: synthesized gene in pGEX6P-1 (BamHI-XhoI), GST fusion from E. coli BL21, GST tag cut by PreScission protease; untagged 63 kDa
Km (purified protein [3]): 1530 ± 70 µM
kcat (purified protein [3]): 253 ± 11 s⁻¹
kcat/Km (purified protein [3]): 166000 ± 3000 M⁻¹ s⁻¹
Km (purified protein [4]): 52.7 ± 7.6 µM
kcat (purified protein [4]): 251 ± 6 s⁻¹
kcat/Km (purified protein [4]): 4.84e+06 ± 733000 M⁻¹ s⁻¹
